Laboratory results: patent US20030069395A1 (DYAX, published 2003)

What was measured:
chicken ovalbumin [1] = target: T1, chicken ovalbumin (Chicken, UniProt P01012 2-386); experiment: fluorescence anisotropy; 3 mM phosphate, pH 6.2, 0 M NaCl; negative control
T1 construct: Negative control; also called Chicken (egg)
T1 sequence (looked up): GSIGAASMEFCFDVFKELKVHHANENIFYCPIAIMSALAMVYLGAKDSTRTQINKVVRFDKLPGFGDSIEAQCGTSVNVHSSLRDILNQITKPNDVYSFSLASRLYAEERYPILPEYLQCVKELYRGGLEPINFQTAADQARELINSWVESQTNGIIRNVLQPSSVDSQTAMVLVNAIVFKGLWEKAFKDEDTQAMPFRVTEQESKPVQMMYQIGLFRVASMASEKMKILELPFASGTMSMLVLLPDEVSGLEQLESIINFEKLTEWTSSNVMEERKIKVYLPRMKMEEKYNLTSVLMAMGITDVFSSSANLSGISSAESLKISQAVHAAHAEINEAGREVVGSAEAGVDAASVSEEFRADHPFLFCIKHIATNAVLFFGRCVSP

[2] = target: T2, human serum albumin (HSA) (human, UniProt P02768 25-609); experiment: fluorescence anisotropy; pH 6.2, 10 mM NaCl
T2 construct: also called caprylate-biotinylated-HSA
Experimental: (§1) Affinity determinations were made by first labeling polypeptides on the C-terminal end with NHS-fluorescein. Fluorescence anisotropy measurements were performed in 384-well microplates in a volume of 10 μl in binding buffer using a Tecan Polarion fluorescence polarization plate reader. The concentration of fluorescein labeled peptide was held constant (20 nM), and the concentration of HSA was varied. For pH 6.2, 7.1, and 7.4 binding conditions, a 3 mM phosphate, 0.01% Tween-20 buffer was used. For pH 9.1 binding conditions, a 3 mM sodium bicarbonate buffer, 0.01% Tween-20 nonionic detergent buffer was used. Once NaCl was added to any of these buffers, their pH was adjusted again to achieve the original pH. The binding mixtures were equilibrated for 10 minutes in the microplate at 30° C. prior to performing the measurement. The observed change in anisotropy was fit to the equation below via nonlinear regression to obtain the apparent KD. This equation assumes that the peptide and HSA form a reversible complex with 1:1 stoichiometry.

[3] = target: T2, human serum albumin (HSA); experiment: fluorescence anisotropy; pH 7.4, 0.14 M NaCl, 0.1% caprylate
Experimental: as §1
Once all the positive phage isolates were sequenced, peptides corresponding to the display peptide were synthesized. A small amount of constant phage sequence surrounding each varied amino acid sequence region was retained and either a -GGGK-NH₂ (SEQ ID NO: 24) amino acid sequence or -X-K-NH₂ C-terminal tail was added to each peptide, where X is 6-aminohexanoic acid and K-NH₂ is an amidated terminal lysine residue. The constant phage sequence was retained because these residues can often play a role in target binding. To determine its affinity for HSA , each peptide was labeled with fluorescein on the C-terminal lysine side chain.

rhesus serum albumin [4] = target: T3, rhesus serum albumin (Rhesus, UniProt Q28522 17-600); experiment: fluorescence anisotropy; 3 mM phosphate, pH 6.2, 0 M NaCl
T3 sequence (Q28522 17-600 limits assumed): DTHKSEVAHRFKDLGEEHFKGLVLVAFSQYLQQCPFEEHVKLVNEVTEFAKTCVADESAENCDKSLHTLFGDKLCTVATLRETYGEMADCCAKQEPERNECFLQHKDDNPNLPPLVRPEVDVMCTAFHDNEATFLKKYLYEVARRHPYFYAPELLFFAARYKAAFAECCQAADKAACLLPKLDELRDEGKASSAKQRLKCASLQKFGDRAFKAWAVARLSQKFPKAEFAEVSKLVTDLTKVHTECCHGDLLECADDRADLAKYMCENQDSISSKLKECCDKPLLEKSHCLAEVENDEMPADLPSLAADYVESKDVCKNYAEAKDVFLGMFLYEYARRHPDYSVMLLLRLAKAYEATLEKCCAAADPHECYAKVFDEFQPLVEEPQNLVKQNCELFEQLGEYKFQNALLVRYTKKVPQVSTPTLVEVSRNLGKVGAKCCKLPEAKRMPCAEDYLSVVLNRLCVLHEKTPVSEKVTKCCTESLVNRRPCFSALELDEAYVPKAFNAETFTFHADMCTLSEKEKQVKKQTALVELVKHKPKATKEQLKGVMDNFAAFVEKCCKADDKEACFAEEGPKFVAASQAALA

pig serum albumin [5] = target: T4, pig serum albumin (Pig, UniProt P08835 25-607); experiment: as above
T4 sequence (P08835 25-607 limits assumed): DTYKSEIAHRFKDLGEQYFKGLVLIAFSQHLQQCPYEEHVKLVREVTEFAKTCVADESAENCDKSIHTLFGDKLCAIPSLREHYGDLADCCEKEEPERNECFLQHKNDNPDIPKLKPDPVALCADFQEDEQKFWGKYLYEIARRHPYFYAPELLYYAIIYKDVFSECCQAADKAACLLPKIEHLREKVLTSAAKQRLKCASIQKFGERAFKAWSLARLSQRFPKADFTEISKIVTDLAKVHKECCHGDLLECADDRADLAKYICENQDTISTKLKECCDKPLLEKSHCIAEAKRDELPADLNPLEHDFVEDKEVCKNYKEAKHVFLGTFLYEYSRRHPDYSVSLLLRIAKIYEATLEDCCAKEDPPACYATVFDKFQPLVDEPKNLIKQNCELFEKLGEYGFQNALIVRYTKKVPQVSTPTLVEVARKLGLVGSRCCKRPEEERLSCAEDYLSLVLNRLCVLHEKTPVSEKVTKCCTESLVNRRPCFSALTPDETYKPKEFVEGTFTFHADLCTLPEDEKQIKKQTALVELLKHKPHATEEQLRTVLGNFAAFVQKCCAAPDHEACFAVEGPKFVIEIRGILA

[6] = target: T5, murine serum albumin (MSA) (Mouse, UniProt P07724 25-608); experiment: as above
T5 construct: also called mouse serum albumin; Mouse
T5 sequence (P07724 25-608 limits assumed): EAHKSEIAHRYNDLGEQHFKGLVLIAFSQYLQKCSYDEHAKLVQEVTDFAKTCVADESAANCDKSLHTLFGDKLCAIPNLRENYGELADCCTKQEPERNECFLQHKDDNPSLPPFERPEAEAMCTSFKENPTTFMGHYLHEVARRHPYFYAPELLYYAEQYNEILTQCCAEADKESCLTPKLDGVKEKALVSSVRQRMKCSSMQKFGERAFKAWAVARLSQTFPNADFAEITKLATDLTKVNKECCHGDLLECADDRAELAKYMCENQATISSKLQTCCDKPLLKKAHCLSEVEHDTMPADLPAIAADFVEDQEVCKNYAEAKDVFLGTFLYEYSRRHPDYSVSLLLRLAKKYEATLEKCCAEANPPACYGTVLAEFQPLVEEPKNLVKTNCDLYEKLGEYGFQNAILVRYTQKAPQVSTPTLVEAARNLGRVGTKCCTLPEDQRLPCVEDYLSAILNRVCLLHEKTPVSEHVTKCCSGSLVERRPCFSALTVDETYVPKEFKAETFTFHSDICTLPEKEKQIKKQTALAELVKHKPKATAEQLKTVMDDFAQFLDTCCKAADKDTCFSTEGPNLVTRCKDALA

[7] = target: T6, bovine serum albumin (BSA) (Bovine, UniProt P02769 25-607); experiment: as above
T6 sequence (P02769 25-607 limits assumed): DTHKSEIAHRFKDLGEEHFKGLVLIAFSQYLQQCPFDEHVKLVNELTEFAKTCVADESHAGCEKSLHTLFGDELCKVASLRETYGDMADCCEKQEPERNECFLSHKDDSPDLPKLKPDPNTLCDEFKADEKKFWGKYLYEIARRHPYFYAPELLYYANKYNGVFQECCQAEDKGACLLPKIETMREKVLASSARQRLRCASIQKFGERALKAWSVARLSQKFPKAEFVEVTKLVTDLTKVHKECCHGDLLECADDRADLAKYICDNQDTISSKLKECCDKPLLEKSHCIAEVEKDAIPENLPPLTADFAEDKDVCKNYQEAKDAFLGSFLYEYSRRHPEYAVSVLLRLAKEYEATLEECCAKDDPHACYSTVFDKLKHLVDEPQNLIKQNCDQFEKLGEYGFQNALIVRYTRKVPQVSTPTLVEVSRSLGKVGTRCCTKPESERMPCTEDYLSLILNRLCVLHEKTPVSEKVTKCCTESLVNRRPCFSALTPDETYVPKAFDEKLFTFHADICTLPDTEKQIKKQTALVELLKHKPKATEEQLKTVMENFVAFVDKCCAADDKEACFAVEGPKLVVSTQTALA

[8] = target: T2, human serum albumin (HSA); experiment: as above
goat serum albumin (GSA) [9] = target: T7, goat serum albumin (GSA) (Goat); experiment: as above
T7 sequence (P85295 whole entry, looked up): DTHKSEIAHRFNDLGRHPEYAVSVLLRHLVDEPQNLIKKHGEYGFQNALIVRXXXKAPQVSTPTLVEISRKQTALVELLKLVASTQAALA

[10] = target: T2, human serum albumin (HSA); experiment: fluorescence anisotropy; pH 6.2, no NaCl, no caprylate
Experimental: as §1

rhesus serum albumin [11] = target: T3, rhesus serum albumin; experiment: fluorescence anisotropy; PBS, pH 7.4, 0.14 M NaCl
rat serum albumin = rat serum albumin (Rat, UniProt P02770 25-608); experiment: fluorescence anisotropy; PBS, pH 7.4, 0.14 M NaCl
Sequence of rat serum albumin (P02770 25-608 limits assumed): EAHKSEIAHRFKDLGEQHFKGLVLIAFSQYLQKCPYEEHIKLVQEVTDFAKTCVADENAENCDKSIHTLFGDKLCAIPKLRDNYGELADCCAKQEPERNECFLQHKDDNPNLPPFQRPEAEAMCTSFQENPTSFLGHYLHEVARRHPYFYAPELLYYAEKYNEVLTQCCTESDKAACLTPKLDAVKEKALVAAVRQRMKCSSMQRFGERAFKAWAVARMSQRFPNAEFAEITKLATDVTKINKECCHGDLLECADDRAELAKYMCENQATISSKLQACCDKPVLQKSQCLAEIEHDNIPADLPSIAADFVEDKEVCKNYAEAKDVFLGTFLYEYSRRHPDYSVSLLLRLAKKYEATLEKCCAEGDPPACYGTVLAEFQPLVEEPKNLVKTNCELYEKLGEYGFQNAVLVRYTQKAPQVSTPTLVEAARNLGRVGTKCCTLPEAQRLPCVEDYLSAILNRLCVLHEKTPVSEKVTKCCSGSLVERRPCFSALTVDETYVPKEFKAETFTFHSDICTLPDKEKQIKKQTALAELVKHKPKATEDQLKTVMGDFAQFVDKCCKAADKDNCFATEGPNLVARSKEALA

pig serum albumin [12] = target: T4, pig serum albumin; experiment: fluorescence anisotropy; PBS, pH 7.4, 0.14 M NaCl
[13] = target: T5, murine serum albumin (MSA); experiment: fluorescence anisotropy; PBS, pH 7.4, 0.14 M NaCl
[14] = target: T6, bovine serum albumin (BSA); experiment: fluorescence anisotropy; PBS, pH 7.4, 0.14 M NaCl
[15] = target: T2, human serum albumin (HSA); experiment: fluorescence anisotropy; PBS, pH 7.4, 0.14 M NaCl
goat serum albumin (GSA) [16] = target: T7, goat serum albumin (GSA); experiment: fluorescence anisotropy; PBS, pH 7.4, 0.14 M NaCl
[17] = target: T2, human serum albumin (HSA); experiment: fluorescence anisotropy; pH 7.4, 0.14 M NaCl, no caprylate
Experimental: as §1

chicken ovalbumin [18] = target: T1, chicken ovalbumin; experiment: fluorescence anisotropy; PBS, pH 7.4, 0.14 M NaCl; negative control
[19] = target: T2, human serum albumin (HSA); experiment: fluorescence anisotropy; pH 6.2, 0.14 M NaCl, no caprylate
Experimental: as §1

B1: DX-321, Ac-AEGTGDRNMCKFSWIRSPAFCARADPE-X-K-NH2 (peptide)
peptide: AEGTGDRNMCKFSWIRSPAFCARADPEXK
modifications: N-terminal acetyl; X = 6-aminohexanoic acid before the C-terminal Lys; C-terminal amide; C-terminal Lys side chain carries fluorescein (anisotropy) or is coupled to NHS-Sepharose
Q: For B1, which Kd (chicken ovalbumin [1]) is on record?
A: Its Kd is > 200 µM.

Q: What about the Kd [2] of the same binder?
A: Its Kd is ~9 µM.

Q: And the Kd [3]?
A: Its Kd is 75 µM.

Q: What about the Kd (rhesus serum albumin [4]) of the same binder?
A: Its Kd is 38 µM.

Q: And the Kd (pig serum albumin [5])?
A: The Kd was 21 µM.

Q: What about the Kd [6] of the same binder?
A: Its Kd is > 200 µM.

Q: And the Kd [7]?
A: The Kd was 21 µM.

Q: And the Kd [8]?
A: Its Kd is 0.9 µM.

Q: What about the Kd (goat serum albumin (GSA) [9]) of the same binder?
A: Its Kd is 95 µM.

Q: And the Kd [10]?
A: Its Kd is 0.9 µM.

Q: What about the Kd (rhesus serum albumin [11]) of the same binder?
A: The Kd was 82 µM.

Q: What about the Kd (rat serum albumin) of the same binder?
A: The Kd was 117 µM.

Q: And the Kd (pig serum albumin [12])?
A: The Kd was > 200 µM.

Q: What about the Kd [13] of the same binder?
A: The Kd was > 200 µM.

Q: What about the Kd [14] of the same binder?
A: Its Kd is > 200 µM.

Q: And the Kd [15]?
A: The Kd was 84 µM.

Q: What about the Kd (goat serum albumin (GSA) [16]) of the same binder?
A: The Kd was 83 µM.

Q: What about the Kd [17] of the same binder?
A: Its Kd is 84 µM.

Q: What about the Kd (chicken ovalbumin [18]) of the same binder?
A: The Kd was > 200 µM.

Q: What about the Kd [19] of the same binder?
A: The Kd was 9 µM.
